The values below come from patent US20260055143A1, “HIGH AFFINITY VARIANTS OF SH2 DOMAINS” (Axoiya Inc., priority 2023, published 2026).

One test concerns the target pTyr-containing peptide (pEZ) derived from Ezrin, PPV{pTyr}EPVS. In words: fluorescence polarization; the wt is the reference. Background: Polarisation of emitted light reports the rotation of a fluorescent probe.
“Fes SH2 domain, wild type (Fes^wt) (from UniProt P07332 460-549)” showed a Fold Change of 1 fold.

In another test the target is Phosphopeptide KQVE{pTyr}LDLDLD. Kind of test: competitive ELISA, soluble phosphopeptide titrated against the immobilized peptide.
For orientation: IC50 means the concentration at which inhibition is half-maximal. Turning to “Ptn11_N^αA-2-Arg, Ptn11_N SH2 domain with the αA-2 position mutated to Arg (designed binder)”, the IC50 is 14 nM.

The next test has as its target Phosphopeptide PPPT{pTyr}TEVDP. Described as above.
For the substance Ptn11_C^sFes/αA-2-Arg (designed binder), the concentration for half-maximal inhibition (IC50) turned out to be 1100 nM.

The target in the next test is pMT peptide EEPQ{pTyr}EEIPIY. In words: competitive phage ELISA (IC50), soluble pMT peptide against the immobilized peptide. A general note: ELISA stands for enzyme-linked immunosorbent assay.
On to “Src^sFes, Src SH2 domain with the sFes superbinder motif grafted (designed binder)”, for which the fold enhancement of affinity over wt is 125 fold.

The target of another test is pTyr-containing peptide (pEZ) derived from Ezrin, PPV{pTyr}EPVS. In words: fluorescence polarization, purified SH2 domain with fluorescein-labelled ezrin phosphopeptide.
“Fes SH2 domain, wild type (Fes^wt) (from UniProt P07332 460-549)” registered an IC50 of 1300 nM.

For a further test the target is unchanged. Kind of test: competitive phage ELISA (IC50), soluble Ezrin phosphopeptide against the immobilized peptide.
For the substance “Fes^sSrc, Fes SH2 domain with the sSrc superbinder motif grafted (designed binder)”, the fold enhancement of affinity over wt was 650 fold.

A further test concerns the target phosphopeptide. In words: competition binding.
Lck sSrc: the IC50 amounted to 12 nM. In other words, the double-digit nanomolar range.

Consider Blk sFes, for which the IC50 stood at 940 nM.

On to Grb2 wt, for which the IC50 was determined as 560 nM. Compared with the last substance, the IC50 is about 1.7-fold lower.

As for Vav sSrc, the IC50 turned out to be 950 nM.

For the substance P85A_N sFes, the IC50 turned out to be 0.9 nM.

With P85B_N sSrc, the IC50 is over 20000 nM.

Consider P85B_N sFes, for which the IC50 was 220 nM.

In the case of Nck1 sFes, the half-inhibitory concentration (IC50) was over 20000 nM.

P85B_N wt displayed an IC50 of over 20000 nM.

In turn, Src sSrc yielded an IC50 of 19 nM.

In turn, Abl1 sFes had an IC50 of 120 nM.

In turn, Shc1 sSrc showed an IC50 of 7200 nM.

As to P55G_N sFes, the IC50 turned out to be 1900 nM. This IC50 is about 3.8-fold lower than that of the substance before.

With Blk wt, the concentration for half-maximal inhibition (IC50) was over 20000 nM.

Vav2 wt showed an IC50 of over 20000 nM.

Substance Nck1 wt yielded an IC50 of 2000 nM.

The substance Btk sFes gave an IC50 of 1100 nM.

Nck1 sSrc came in with an IC50 of 100 nM.

Grb2 sFes: the IC50 was determined as 90 nM.

Shc1 sFes displayed an IC50 of over 20000 nM.

On to Abl1 sSrc, for which the IC50 came out at 290 nM.

Turning to Shc1 wt, the IC50 is over 20000 nM.

Lck wt showed an IC50 of 360 nM. This lies in the sub-micromolar range.

The substance Vav wt returned an IC50 of over 20000 nM.

As for Vav3 wt, the IC50 was over 20000 nM.

Substance P85A_N sSrc came in with an IC50 of 2300 nM.

Btk wt had an IC50 of over 20000 nM.

The substance Lck sFes yielded an IC50 of 70 nM.

In the case of Vav2 sFes, the IC50 is over 20000 nM.

In turn, Btk sSrc had an IC50 of 810 nM. This lies in the sub-micromolar range.

Substance Vav2 sSrc displayed an IC50 of 872 nM.

Grb2 sSrc had an IC50 of 11 nM.

For the substance Blk sSrc, the IC50 amounted to 110 nM. This IC50 is about 10-fold higher than that of the substance before.

As for Abl1 wt, the IC50 was determined as 1600 nM.

Consider Crkl wt, for which the IC50 was determined as 3100 nM.

With P85A_N wt, the IC50 stood at 540 nM. This IC50 lies about 5.7-fold lower than the previous one.

As to Crkl sSrc, the half-inhibitory concentration (IC50) was 27 nM.
